In US20200055935A1 (AGENCY FOR SCIENCE TECHNOLOGY AND RESEARCH, published 2020):
Numbering of substitutions follows the chain as printed.

B1: anti-TIM-3 antibody clone 1H10 (antibody, V domains shown)
VH: QVQLQQWGAGLLKPSETLSLTCAVYGGSFSGYYWSWIRQPPGKGLEWIGEINHSGSTNYNPSLKSRVTISVDTSKNQFSLKLSSVTAADTAVYYCARGYVAGFDSWGQGTLVTVSS
VL: QSVLTQPPSVSAAPGQKVTISCSGSSSNIGNNYVSWYQQLPGTAPKLLIYGNNWRPSGIPDRFSGSKSGTSATLGITGLQTGDEADYYCDSWDYDYAAGVFGGGTKLTVL
B2: anti-TIM-3 antibody clone 1D9 (antibody, V domains shown)
VH: B1 VH with V100Y, F103D, S105Y
VL: B1 VL with D90E, S91A, Y94S, D95A, V100S
B3: anti-TIM-3 antibody clone 1B9 (antibody, V domains shown)
VH: B1 VH with F103S, S105A
VL: B1 VL with D90E, S91A, D95Y, Y96V, V100Y
notes: also called 169
B4: anti-TIM-3 antibody clone 2C7 (antibody, V domains shown)
VH: B1 VH with F103Y, S105Y
VL: B1 VL with Y94S, D95Y, Y96L
B5: anti-TIM-3 antibody clone 2G6 (antibody, V domains shown)
VH: B1 VH
VL: B1 VL with Y94S, D95S, Y96D, A97S, A98S
B6: anti-TIM-3 antibody clone 1F4 (antibody, V domains shown)
VH: B1 VH with F103Y, S105Y
VL: B1 VL with Y94A, D95A, Y96L, A97S
B7: anti-TIM-3 antibody clone 1H9 (antibody, V domains shown)
VH: B1 VH with S105D
VL: B1 VL with Y94S, D95A, Y96D, A98S
B8: anti-TIM-3 antibody clone 2F4 (antibody, V domains shown)
VH: B1 VH with F103S, S105A
VL: B1 VL with D90E, A98S

Target: T1, human TIM-3 coupled to Fc (human, UniProt Q8TDQ0 22-200, limits assumed)
T1 construct: Immobilised on the SPR sensor chip; not shown: Fc part
Test: SPR (ProteOn XPR36), human TIM-3-Fc immobilised, antibody in flow
Method: In order to select some leads amongst the ELISA-positive clones, TIM-3 association/dissociation profiles were analysed by Surface Plasmon Resonance (SPR). Briefly, human TIM-3 coupled to Fc was immobilised on sensor chip and the antibodies were then applied as a flow onto the chip. Association and dissociation rates were recorded using a ProteOn XPR36 bioanalyser (Biorad). Nine clones (1B9, 1H9, 1H10, 2C7, 2F4, 2G6, 1D9, 1F4, 2C8) were selected based on their rapid/strong association to TIM-3 and their slow dissociation from the protein (FIG. 5).

| Binder | binding result |
| --- | --- |
| B1 | binds |
| B2 | binds |
| B3 | binds |
| B4 | binds |
| B5 | binds |
| B6 | binds |
| B7 | binds |
| B8 | binds |
